Patent US6803203

How the values were obtained:
[1] = test system: T1, synthetic peptide (SEQ ID NO: 20)
T1 sequence: EPPLSEQAFADLWKK

[2] = test system: T2, synthetic peptide (SEQ ID NO: 11)
T2 sequence: EPPLSQEAFADLWKK

Row | Substance | incorporation of phosphate into the peptide (200 or 500 µM) [1] | incorporation of phosphate into the peptide (200 or 500 µM) [2]
1 | catalytic subunit of cyclic AMP kinase | less than 5% of the incorporation into the standard peptides used to assay each kinase | less than 5% of the incorporation into the standard peptides used to assay each kinase
2 | casein kinase II | less than 5% of the incorporation into the standard peptides used to assay each kinase | less than 5% of the incorporation into the standard peptides used to assay each kinase
3 | casein kinase I | less than 5% of the incorporation into the standard peptides used to assay each kinase | less than 5% of the incorporation into the standard peptides used to assay each kinase
